Measurements taken from patent US20050277175.

Molecular target: bovine aggrecan (UniProt P13608)
Sequence (P13608 20-2364): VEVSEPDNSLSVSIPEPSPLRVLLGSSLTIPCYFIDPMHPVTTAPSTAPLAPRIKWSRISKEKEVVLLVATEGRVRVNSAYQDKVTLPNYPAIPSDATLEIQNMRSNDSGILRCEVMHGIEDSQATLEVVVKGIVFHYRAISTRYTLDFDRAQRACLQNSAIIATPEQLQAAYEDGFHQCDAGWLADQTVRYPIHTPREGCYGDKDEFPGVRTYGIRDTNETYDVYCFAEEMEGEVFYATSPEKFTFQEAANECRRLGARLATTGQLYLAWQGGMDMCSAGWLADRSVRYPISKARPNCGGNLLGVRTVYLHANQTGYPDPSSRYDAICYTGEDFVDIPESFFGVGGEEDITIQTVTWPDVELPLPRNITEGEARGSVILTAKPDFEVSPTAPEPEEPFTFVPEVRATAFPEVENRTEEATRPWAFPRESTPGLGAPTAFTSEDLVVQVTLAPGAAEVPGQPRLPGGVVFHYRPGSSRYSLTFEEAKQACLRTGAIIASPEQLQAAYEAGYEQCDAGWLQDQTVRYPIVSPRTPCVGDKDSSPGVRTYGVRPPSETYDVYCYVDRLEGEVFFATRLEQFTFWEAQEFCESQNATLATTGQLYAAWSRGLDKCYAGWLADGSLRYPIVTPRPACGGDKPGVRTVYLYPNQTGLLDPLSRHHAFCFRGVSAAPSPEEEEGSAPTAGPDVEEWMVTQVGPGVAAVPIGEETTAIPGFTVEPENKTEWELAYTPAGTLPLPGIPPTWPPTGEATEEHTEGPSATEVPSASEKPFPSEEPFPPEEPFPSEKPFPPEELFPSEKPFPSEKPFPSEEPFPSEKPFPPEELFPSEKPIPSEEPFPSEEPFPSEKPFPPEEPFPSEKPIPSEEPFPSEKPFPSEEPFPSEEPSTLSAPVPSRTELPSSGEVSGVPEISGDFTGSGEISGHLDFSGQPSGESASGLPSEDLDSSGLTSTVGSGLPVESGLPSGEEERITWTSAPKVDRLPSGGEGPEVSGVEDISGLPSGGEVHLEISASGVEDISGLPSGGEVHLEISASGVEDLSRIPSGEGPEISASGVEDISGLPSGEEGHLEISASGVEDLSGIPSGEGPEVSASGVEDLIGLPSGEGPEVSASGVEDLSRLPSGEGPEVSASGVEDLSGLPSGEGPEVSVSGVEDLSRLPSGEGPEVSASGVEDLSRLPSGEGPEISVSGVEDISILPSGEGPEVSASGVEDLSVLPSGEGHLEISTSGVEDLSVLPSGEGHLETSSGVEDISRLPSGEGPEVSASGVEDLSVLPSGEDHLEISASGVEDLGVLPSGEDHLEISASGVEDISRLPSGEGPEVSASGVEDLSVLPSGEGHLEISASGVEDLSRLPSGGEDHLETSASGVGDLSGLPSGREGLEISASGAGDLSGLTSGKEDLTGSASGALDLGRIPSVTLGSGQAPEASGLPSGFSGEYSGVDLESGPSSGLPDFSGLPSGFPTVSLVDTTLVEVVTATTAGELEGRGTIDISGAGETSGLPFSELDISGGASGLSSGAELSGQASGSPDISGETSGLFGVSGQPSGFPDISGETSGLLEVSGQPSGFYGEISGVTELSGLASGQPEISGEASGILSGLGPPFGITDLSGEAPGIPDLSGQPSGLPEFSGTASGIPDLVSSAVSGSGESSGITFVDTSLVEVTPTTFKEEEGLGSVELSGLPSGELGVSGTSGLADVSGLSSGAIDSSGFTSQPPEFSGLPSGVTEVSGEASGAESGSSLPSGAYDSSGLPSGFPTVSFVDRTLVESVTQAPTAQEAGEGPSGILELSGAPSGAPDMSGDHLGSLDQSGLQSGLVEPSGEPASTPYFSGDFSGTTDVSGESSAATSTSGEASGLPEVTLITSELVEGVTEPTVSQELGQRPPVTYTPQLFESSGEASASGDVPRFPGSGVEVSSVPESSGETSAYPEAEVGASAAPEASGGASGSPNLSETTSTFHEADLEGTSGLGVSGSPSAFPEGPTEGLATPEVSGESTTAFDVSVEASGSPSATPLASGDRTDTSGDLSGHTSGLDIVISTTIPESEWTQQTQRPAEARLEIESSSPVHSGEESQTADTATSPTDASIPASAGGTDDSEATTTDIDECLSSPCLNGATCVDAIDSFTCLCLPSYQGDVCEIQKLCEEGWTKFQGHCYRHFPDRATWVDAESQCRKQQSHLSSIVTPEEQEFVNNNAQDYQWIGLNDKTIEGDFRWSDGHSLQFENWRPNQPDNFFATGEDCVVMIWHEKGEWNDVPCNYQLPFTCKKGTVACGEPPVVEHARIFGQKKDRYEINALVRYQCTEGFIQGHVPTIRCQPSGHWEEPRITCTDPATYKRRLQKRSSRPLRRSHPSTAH

recombinant aggrecanase 1 protein (ADAMTS-4)
aggrecanase activity (digestion of bovine aggrecan, neoepitope Western blot with C1 MAb): Positive control is recombinant aggrecanase 1 protein (ADAMTS-4)
